The source of these data is US20230295327A1.

For the assay, the target named is IL-12 receptor of human T cells (human) (UniProt P42701). Nature of the assay: cell-based or functional assay.
Chain of IL-12 receptor of human T cells (human) (Q99665 24-862, chain 2 of 2, other chains not shown): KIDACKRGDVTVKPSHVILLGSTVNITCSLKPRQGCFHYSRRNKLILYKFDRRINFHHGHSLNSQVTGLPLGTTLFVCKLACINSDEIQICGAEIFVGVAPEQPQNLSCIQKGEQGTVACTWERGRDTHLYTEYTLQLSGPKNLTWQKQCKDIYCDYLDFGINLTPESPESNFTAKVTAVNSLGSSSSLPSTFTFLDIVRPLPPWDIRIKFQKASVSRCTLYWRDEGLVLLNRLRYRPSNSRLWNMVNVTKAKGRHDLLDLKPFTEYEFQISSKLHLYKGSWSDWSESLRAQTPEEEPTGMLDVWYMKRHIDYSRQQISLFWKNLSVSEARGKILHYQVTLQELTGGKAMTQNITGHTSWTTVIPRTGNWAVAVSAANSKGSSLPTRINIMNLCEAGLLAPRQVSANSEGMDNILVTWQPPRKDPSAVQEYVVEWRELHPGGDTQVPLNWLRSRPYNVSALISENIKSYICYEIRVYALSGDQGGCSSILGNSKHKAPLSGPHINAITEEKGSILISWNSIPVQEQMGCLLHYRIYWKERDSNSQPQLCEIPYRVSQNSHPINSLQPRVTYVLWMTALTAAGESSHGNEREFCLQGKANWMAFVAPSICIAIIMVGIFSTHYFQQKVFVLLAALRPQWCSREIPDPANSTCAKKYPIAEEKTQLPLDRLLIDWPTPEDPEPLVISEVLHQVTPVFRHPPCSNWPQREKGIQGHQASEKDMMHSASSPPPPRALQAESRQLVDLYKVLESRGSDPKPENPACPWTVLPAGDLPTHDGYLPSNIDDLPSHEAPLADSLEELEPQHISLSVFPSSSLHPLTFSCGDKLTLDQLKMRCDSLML

“recombinant human IL-12 (from UniProt P29459 23-219; P29460 23-328) (ligand)” came in with a p-STAT4 (Tyr693) AlphaLISA in activated human T cells, EC50 of 0.195 ng/mL.
